Consider one protein from the PETadex activity labels (doi:10.3390/polym4010617).

Substrate in data set [1]: PLA
Description: Proxy for plastic degradation [HPLC-UV]. The settings on record: pH 7; 37 °C.

Substrate in a further data set: pNP-C2
Briefly: Proxy for plastic degradation [Specific activity]. The settings on record: pH 7.

Substrate in the next data set: pNPB
Description: Proxy for plastic degradation [Specific activity]. The settings on record: pH 7.

Substrate in data set [2]: PLA
Briefly: Proxy for plastic degradation [Released monomer concentration (HPLC/LC-MS) (LA )]. The conditions noted are these: pH 7.

Data set [3] in a line: Proxy for plastic degradation [Released monomer concentration (HPLC/LC-MS) (BA)] (mmol/mol of enzyme). The conditions noted are these: pH 7.
Data set [4] can be described thus: Proxy for plastic degradation [Released monomer concentration (HPLC/LC-MS) (TA)] (mmol/mol of enzyme). The conditions noted are these: pH 7.
Substrate in data set [5]: PET
Described as above. The conditions noted are these: pH 7.

Data set [6] can be described thus: Proxy for plastic degradation [Released monomer concentration (HPLC/LC-MS) (HEB)] (mmol/mol of enzyme). The conditions noted are these: pH 7.
The nature of data set [7]: Proxy for plastic degradation [Released monomer concentration (HPLC/LC-MS) (MHET)] (mmol/mol of enzyme). The settings on record: pH 7.
Substrate in data set [8]: PET
The data set is described as above. The settings on record: pH 7.

B1: unnamed (protein)
chain: MANPYERGPNPTNSSIEALRGPFRVDEERVSRLQARGFGGGTIYYPTDNNTFGAVAISPGYTGTQSSISWLGERLASHGFVVMTIDTNTTLDQPDSRASQLDAALDYMVEDSSYSVRNRIDSSRLAAMGHSMGGGGTLRLAERRPDLQAAIPLTPWHTDKTWGSVRVPTLIIGAENDTIASVRSHSEPFYNSLPGSLDKAYLELDGASHFAPNLSNTTIAKYSISWLKRFVDDDTRYTQFLCPGPSTGWGSDVEEYRSTCPF
Take B1: the “Proxy for plastic degradation” value with PLA [1] was found to be 14.5 µM; with pNP-C2, 550 U/mg; in the data set with pNPB, 500 U/mg; with PLA [2] it was 14.5 µM; in data set [3], 58; in [4], 18. Further, the “Proxy for plastic degradation” value with PET [5] was found to be 21.5; in [6], 53; in [7] it was 35; with PET [8], 19.8.
